Results published in US20040229289A1, “Antigen binding peptides (abtides) from peptide libraries” (Cytogen Corporation, priority 1994, published 2004).
Values belong to the molecule of their own block, whether it stands above or below them. Where a SMILES comes first, the peptide text is derived from it. Where no end group is shown, it is not given here. The star is where a group is joined. DTPA = O=C(O)CN(CCN(CC(=O)O)CC(=O)O)CCN(CC(=O)O)CC(=O)*

Tests used:
[1] = test system: biotinylated 7E11-9.5 mimetope peptide; assay: Dot blot: spotted 7E11-C5 abtides probed with biotinylated mimetope peptide; format: binding; settings: 1 μL of 1 mg/mL abtide spotted on nitrocellulose; 0.1 mg/mL mimetope; FIG. 4
Method: (§1) In some cases, these abtides were used in a dot blot experiment. In those cases, 1 μL of a 1 mg/mL solution of the 38-residue abtides was spotted onto nitrocellulose (0.2 μm or 0.45 μm, Schleicher & Schuell, Keene, NH) strips or circles. After drying (about 1/2 hour), the nitrocellulose was blocked for 1 hour in a solution of 1% BSA in PBS. The nitrocellulose was then allowed to incubate in approximately 5 mL of a solution of 0.1 mg/mL of a biotinylated 7E11-9.5 mimetope peptide (biotin-LYANPGMYSRLHSPA). This mimetope peptide was one of those described in Section 6.1.1 above that were synthesized based upon the nine peptides that were identified in the screening of Section 6.1.1 above. After an hour, the nitrocellulose was washed approximately 5 times with a solution of 1% BSA in PBS. A 1:2000 dilution of Extravidin-Alkaline Phosphatase (4,250 units/mL) (Sigma, St. Louis, Mo.) in PBS was then added and allowed to incubate for 1 hour, after which the nitrocellulose was again washed extensively. Finally, a solution of 5-bromo-4-chloro-3-indolyl phosphate (0.15 mg/mL) and nitro blue tetrazolium (0.3 mg/mL) (Sigma, St Louis, Mo.) (BCIP/NBT) was added as an enzyme substrate. Color was allowed to develop […].
(§2) In FIG. 4, the 7E11-C5 abtides known as clone 14, clone 17, clone 15, clone 16, and clone 13 were tested for their ability to bind the biotinylated 7E11-9.5 mimetope peptide. Also tested, as a positive control, was the monoclonal antibody 7E11-C5. 7E11-C5 was spotted onto the region marked 351 in FIG. 4.

[2] = test system: human prostate carcinoma LNCaP xenograft tumors; assay: in vivo; design: species or system SCID mice; settings: mouse, iv
Method: Male SCID mice (C.B-17/Icr Tac—SCID mice) were purchased from Fox Chase (Philadelphia, Pa.) or. Taconic Farms (Germantown, N.Y.), were housed in sterilized cages with filter bonnets, and were given autoclaved laboratory rodent chow (Purina, St. Louis, Mo.), and filtered tap water ad libitum.
1×10^7 cells of the human prostate tumor line LNCaP (Horoszewicz et al., 1987, Anticancer Res. 7:927-936) were injected subcutaneously (s.c.) into the left rear flank of the mice. The cells were growing in exponential phase before harvesting and had been resuspended in 0.2 mL of sterile saline. Tumors were grown in the mice for 2-3 months before abtides were injected into the mice.
For biodistribution studies, abtides were modified at their amino termini with the chelator diethylene-triamine-pentaacetic acid anhydride (DTPA-A) (Sigma, St. Louis, Mo.). Approximately 2 mg of each abtide was initially dissolved in an appropriate volume of 0.1% acetic acid and then 1 mL of 0.1 M sodium bicarbonate, pH 8.0, was added. Two mg of DTPA-A was suspended in 100 AL of dimethylsulfoxide (DMSO), and 10 μL of the abtide solution added to this DTPA-A suspension. […]
In one experiment, abtide clone 14-DPTA-^111In (see Table 2) was injected intravenously (i.v.) into two groups of mice bearing measurable LNCaP xenografts. […] Thus, the total injected dose of radioactivity was about 120-140×10^6 cpm.
The first group of mice was sacrificed 2 hours after injection of the abtide and tissues were dissected for analysis. […] Dissected tissues were weighed and the amount of ^111In in them was determined by gamma counting. The cpm per gram of each tissue was calculated by dividing the cpm of ^111In found in the tissue by the weight in grams of the tissue. […]
In another experiment, abtide clone 17-DPTA-^111In (see Table 2) was injected intravenously into four SCID mice bearing measurable LNCaP xenografts. […] Thus, the total injected dose of radioactivity was about 100-110×10^6 cpm. […]

[3] = molecular target: T1, mimetope peptide 7E11-9.5 (not fully specified); assay: phage panning of TSAR-9 library on plate-bound 7E11-9.5 peptide
T1 peptide: LYANPGMYSRLHSPA
Method: Next, the mimetope peptide was used to isolate abtides from a peptide library. Fifty to one hundred microliters of the solution of this peptide was used to coat the wells of a 96-well plate, the wells were blocked with 0.5% BSA in PBS, and the wells were used for screening. An aliquot of the TSAR-9 random phage library (containing approximately 3×10¹⁰ phage particles) was used as in the initial screening, and 4 rounds of screening were performed. After the first two rounds, the phage were amplified. Two more rounds of screening were then performed. By this procedure, phage from the TSAR-9 library that expressed peptides capable of binding to the 7E11-9.5 mimetope peptide were identified and isolated. The peptides containing the binding domains of these phage are abtides and were discovered to mimic the binding specificities of monoclonal antibody 7E11-C5. These abtides are termed “7E11-C5 abtides.”

[4] = molecular target: T2, biotinylated 7E11-9.5 mimetope peptide (not fully specified (N-terminus); printed as Biotin-LYANPGMYSRLHSPA-NH2); assay: dot blot, synthetic abtide spotted on nitrocellulose, biotinylated mimetope in solution
T2 peptide: LYANPGMYSRLHSPA-NH2
Method: as §1, with “(biotin-[…]).” for “(biotin-LYANPGMYSRLHSPA).”
as §2

PEM peptide [5] = molecular target: T3, PEM peptide (human); assay: phage panning on PEM peptide, DC43 library, acid eluted
T3 peptide: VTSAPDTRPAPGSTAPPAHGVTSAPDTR
Method: (§3) A peptide comprising this sequence was synthesized and used to isolate abtides from TSAR peptide libraries by methods analogous to those described above. In these experiments, the specific TSAR libraries used were R26, D38 and DC43. See FIGS. 10-12 for description of these libraries. Phage bound to PEM were eluted by either standard acid elution methods, stringent acid elution methods where phage were incubated with the PEM peptide for only 10 minutes prior to washing and elution, or were eluted using excess PEM peptide. Phage from each library were isolated that express peptides capable of binding to PEM.

PEM peptide [6] = molecular target: T3, PEM peptide; assay: phage panning on PEM peptide, D38 library, eluted with excess PEM peptide
Method: as §3

binding of biotinylated 7E11-9.5 mimetope peptide in dot blot [1]: bound the mimetope
Molecule: DLSRNLDFGRFLLYNAYVPGFTPTFISLTAEHLSSPKG [clone 17]

binding of biotinylated 7E11-9.5 mimetope peptide in dot blot [1]: bound the mimetope
Molecule: CGRAYCLSGNYNIFGALFPGVSTPYADVGHDDAQSWRR [clone 15]

Molecule: CC[C@H](C)[C@H](NC(=O)[C@H](Cc1ccccc1)NC(=O)[C@@H](NC(=O)[C@@H]1CCCN1C(=O)[C@@H](NC(=O)[C@H](Cc1ccccc1)NC(=O)CNC(=O)[C@@H]1CCCN1C(=O)[C@@H](NC(=O)[C@H](Cc1ccc(O)cc1)NC(=O)[C@H](C)NC(=O)[C@H](CC(N)=O)NC(=O)[C@H](Cc1ccc(O)cc1)NC(=O)[C@H](CC(C)C)NC(=O)[C@H](CC(C)C)NC(=O)[C@H](Cc1ccccc1)NC(=O)[C@H](CCCNC(=N)N)NC(=O)CNC(=O)[C@H](Cc1ccccc1)NC(=O)[C@H](CC(=O)O)NC(=O)[C@H](CC(C)C)NC(=O)[C@H](CC(N)=O)NC(=O)[C@H](CCCNC(=N)N)NC(=O)[C@H](CO)NC(=O)[C@H](CC(C)C)NC(=O)[C@H](CC(=O)O)NC(=O)CN(CCN(CCN(CC(=O)O)CC(=O)O)CC(=O)O)CC(=O)O)C(C)C)[C@@H](C)O)[C@@H](C)O)C(=O)N[C@@H](CO)C(=O)N[C@@H](CC(C)C)C(=O)N[C@H](C(=O)N[C@@H](C)C(=O)N[C@@H](CCC(=O)O)C(=O)N[C@@H](Cc1c[nH]cn1)C(=O)N[C@@H](CC(C)C)C(=O)N[C@@H](CO)C(=O)N[C@@H](CO)C(=O)N1CCC[C@H]1C(=O)N[C@@H](CCCCN)C(=O)NCC(N)=O)[C@@H](C)O [abtide clone 17-DPTA-^111In, metal not drawn] ({DTPA}-DLSRNLDFGRFLLYNAYVPGFTPTFISLTAEHLSSPKG-NH2)
localization to LNCaP xenograft tumors [2]: localized to LNCaP xenograft tumors

binding result [3]: binds | binding result [4]: binds
B1: 7E11-C5 abtide clone 14 (peptide)
peptide: GIINANDPLPFWFMSPYTPGPAPIDINASRALVSNESG
notes: tested afterwards as synthetic 38-residue peptide (dot blot, ELISA, sandwich assay)

binding result [3]: binds | binding result [4]: binds
B2: 7E11-C5 abtide clone 17 (peptide)
peptide: DLSRNLDFGRFLLYNAYVPGFTPTFISLTAEHLSSPKG
notes: tested afterwards as synthetic 38-residue peptide

binding result (PEM peptide [5]): binds
Molecule: LPRPFDDASWKLRAVKESPDGCGFGSPLLFPPYSGLPTFSSCD (acid eluted) [MA-21]

binding result (PEM peptide [5]): binds
Molecule: GSFESARGVTCIGNHSIGAHGCGPLRSYASFNRGSGRRH (acid eluted) [V22]

binding result [3]: binds | binding result [4]: binds
B3: 7E11-C5 abtide clone 15 (peptide)
peptide: CGRAYCLSGNYNIFGALFPGVSTPYADVGHDDAQSWRR
notes: as for B2

binding result (PEM peptide [6]): binds
Molecule: GRGSDMREHWPWSMPLILDQHANDPSPRAQSHYYSHPF (eluted with excess PEM peptide) [MP-30]

binding result (PEM peptide [6]): binds
Molecule: IDWNWLERGQHNRGYLHSFPDAKSQPTRGPRVAPNGND (eluted with excess PEM peptide) [MP-20]

binding result (PEM peptide [5]): binds
Molecule: EEKQGGRWSTMMPRPWCHEGGCGFLYYDAMTKPKTPPIMRTAA (acid eluted) [MA-8]
